Results from paper PMC5690661, “The PrpF protein of Shewanella oneidensis MR-1 catalyzes the isomerization of 2-methyl-cis-aconitate during the catabolism of propionate via the AcnD-dependent 2-methylcitric acid cycle” (PLoS ONE, 2017).

How the values were obtained:
[1] = system: C/C(C(=O)O)=C(\CC(=O)O)C(=O)O; experiment: purified protein; conditions: Tris-HCl 50 mM pH 8.0, KCl 100 mM, 37°C, Fe/S-reactivated enzyme
SoPrpF = target: T1, SoPrpF (Shewanella oneidensis, UniProt Q8EJW4); experiment: HPLC time course; coupled aconitase assay; format: biochemical; conditions: substrate is the SoAcnD product of 2-methylcitrate; Tris-HCl 50 mM pH 8.0, KCl 100 mM
T1 construct: gene prpF; recombinant from pPRP196 (pTEV4, N-terminal TEV-cleavable H6 tag), purified as in earlier work; homodimer

SePrpD = target: T2, SePrpD (Salmonella enterica, UniProt P74840); experiment: HPLC of reaction products; format: biochemical; conditions: 5 mM substrate, Tris-HCl 90 mM pH 8.0, 37°C, 1.5 h
T2 construct: gene prpD; recombinant, His-tagged, purified from E. coli
T2 sequence (P74840 1-483): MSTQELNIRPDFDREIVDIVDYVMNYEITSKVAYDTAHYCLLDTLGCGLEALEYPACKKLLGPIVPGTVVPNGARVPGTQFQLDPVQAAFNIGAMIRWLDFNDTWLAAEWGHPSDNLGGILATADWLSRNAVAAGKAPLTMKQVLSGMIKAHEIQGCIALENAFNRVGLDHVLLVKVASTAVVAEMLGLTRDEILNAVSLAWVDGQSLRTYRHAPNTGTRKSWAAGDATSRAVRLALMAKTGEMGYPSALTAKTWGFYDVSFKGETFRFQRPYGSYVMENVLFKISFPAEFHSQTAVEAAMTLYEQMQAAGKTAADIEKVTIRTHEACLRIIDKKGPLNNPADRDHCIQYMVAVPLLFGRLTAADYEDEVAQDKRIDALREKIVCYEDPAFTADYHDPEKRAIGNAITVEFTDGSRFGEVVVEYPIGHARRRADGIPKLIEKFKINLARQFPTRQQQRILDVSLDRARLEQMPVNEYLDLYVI

purified protein = substrate: O=C(O)/C=C(/CC(=O)O)C(=O)O; experiment: purified protein; conditions: Tris-HCl 50 mM pH 8.0, KCl 100 mM, 37°C, Fe/S-reactivated enzyme
[2] = target: the molecule itself; experiment: crystal structure; hanging drop vapor diffusion, MES 100 mM pH 6.0, sodium malonate 136 mM, PEG 4K 15% w/v, room temperature; space group P2(1), two chains in the asymmetric unit related by a non-crystallographic twofold axis; 1.22 Å

T1 sequence (Q8EJW4 whole entry): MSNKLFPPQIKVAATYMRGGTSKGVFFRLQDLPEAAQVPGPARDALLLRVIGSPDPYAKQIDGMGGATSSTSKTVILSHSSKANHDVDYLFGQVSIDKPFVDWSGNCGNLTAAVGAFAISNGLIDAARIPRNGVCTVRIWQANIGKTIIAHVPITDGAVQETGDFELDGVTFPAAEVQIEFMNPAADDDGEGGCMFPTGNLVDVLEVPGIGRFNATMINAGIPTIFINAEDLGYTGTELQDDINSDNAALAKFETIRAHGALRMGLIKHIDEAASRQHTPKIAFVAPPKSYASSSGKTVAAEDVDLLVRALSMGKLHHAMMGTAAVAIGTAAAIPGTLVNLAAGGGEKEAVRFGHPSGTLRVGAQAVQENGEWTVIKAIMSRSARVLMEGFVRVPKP

SeAcnB (Salmonella enterica subsp. enterica serovar Typhimurium str. LT2)
Km [1]: 208 ± 39 µM
Vmax [1]: 10 µM/min
kcat [1]: 6.6 ± 0.667 s⁻¹
kcat/Km [1]: 31700 M⁻¹ s⁻¹

C/C(C(=O)O)=C(\CC(=O)O)C(=O)O [2-methyl-cis-aconitate]
HPLC time course; coupled aconitase assay (SoPrpF): SoPrpF converted the SoAcnD reaction product into 2-methyl-cis-aconitate over time

SeAcnA (Salmonella enterica subsp. enterica serovar Typhimurium str. LT2)
Km [1]: 210 ± 35 µM
Vmax [1]: 50 µM/min
kcat [1]: 11.8 ± 0.7 s⁻¹
kcat/Km [1]: 56700 M⁻¹ s⁻¹

CC(C(=O)O)C(O)(CC(=O)O)C(=O)O (stereo not shown) [2-methylcitrate]
HPLC of reaction products (SePrpD): SePrpD synthesized 2-methyl-cis-aconitate from 2-methylcitrate

B1: SeAcnA (Salmonella enterica subsp. enterica serovar Typhimurium str. LT2) (protein)
chain: MSSTLREASKDTLQAKDKTYHYYSLPLAAKSLGDIARLPKSLKVLLENLLRWQDGESVTDEDIQALAGWLKNAHADREIAWRPARVLMQDFTGVPAVVDLAAMREAVKRLGGDTSKVNPLSPVDLVIDHSVTVDHFGDDDAFEENVRLEMERNHERYMFLKWGKQAFSRFSVVPPGTGICHQVNLEYLGKAVWSELQDGEWIAYPDSLVGTDSHTTMINGLGVLGWGVGGIEAEAAMLGQPVSMLIPDVVGFKLTGKLREGITATDLVLTVTQMLRKHGVVGKFVEFYGDGLDSLPLADRATIANMSPEYGATCGFFPIDAITLEYMRLSGRSDDLVELVETYAKAQGMWRNPGDEPVFTSTLELDMGDVEASLAGPKRPQDRVALGDVPKAFAASAELELNTAQRDRQPVDYTMNGQPYQLPDGAVVIAAITSCTNTSNPSVLMAAGLLAKKAVTLGLKRQPWVKASLAPGSKVVSDYLAQAKLTPYLDELGFNLVGYGCTTCIGNSGPLPEPIETAIKKGDLTVGAVLSGNRNFEGRIHPLVKTNWLASPPLVVAYALAGNMNINLATDPLGYDRKGDPVYLKDIWPSAQEIARAVELVSSDMFRKEYAEVFEGTEEWKSIQVESSDTYGWQSDSTYIRLSPFFDEMQAQPAPVKDIHGARILAMLGDSVTTDHISPAGSIKPDSPAGRYLQNHGVERKDFNSYGSRRGNHEVMMRGTFANIRIRNEMLPGVEGGMTRHLPGTEAMSIYDAAMLYQQEKTPLAVIAGKEYGSGSSRDWAAKGPRLLGIRVVIAESFERIHRSNLIGMGILPLEFPQGVTRKTLGLTGEEVIDIADLQNLRPGATIPVTLTRSDGSKETVPCRCRIDTATELTYYQNDGILHYVIRNMLN
Km (purified protein): 22 ± 2 µM
Vmax (purified protein): 86 µM/min
kcat (purified protein): 62.3 ± 1.45 s⁻¹
kcat/Km (purified protein): 2.83e+06 M⁻¹ s⁻¹

B2: SeAcnB (Salmonella enterica subsp. enterica serovar Typhimurium str. LT2) (protein)
chain: MLEEYRKHVAERAAQGIVPKPLDATQMAALVELLKTPPVGEEEFLLDLLINRVPPGVDEAAYVKAGFLAAVAKGDTTSPLVSPEKAIELLGTMQGGYNIHPLIDALDDAKLAPIAAKALSHTLLMFDNFYDVEEKAKAGNEYAKQVMQSWADAEWFLSRPPLAEKITVTVFKVTGETNTDDLSPAPDAWSRPDIPLHAQAMLKNAREGIEPDQPGVVGPIKQIEALQKKGYPLAYVGDVVGTGSSRKSATNSVLWFMGDDIPNVPNKRGGGLCLGGKIAPIFFNTMEDAGALPIEVDVSNLNMGDVIDVYPYKGEVRNHETGELLATFELKTDVLIDEVRAGGRIPLIIGRGLTTKAREALGLPHSDVFRQAKDVAESSRGFSLAQKMVGRACGVKGIRPGAYCEPKMTSVGSQDTTGPMTRDELKDLACLGFSADLVMQSFCHTAAYPKPVDVTTHHTLPDFIMNRGGVSLRPGDGVIHSWLNRMLLPDTVGTGGDSHTRFPIGISFPAGSGLVAFAAATGVMPLDMPESVLVRFKGKMQPGITLRDLVHAIPLYAIKQGLLTVEKKGKKNIFSGRILEIEGLPDLKVEQAFELTDASAERSAAGCTIKLNKEPIVEYLTSNIVLLKWMIAEGYGDRRTLERRIQGMEKWLADPQLLEADADAEYAAVIDIDLADIKEPILCAPNDPDDARLLSDVQGEKIDEVFIGSCMTNIGHFRAAGKLLDNHKGQLPTRLWVAPPTRMDAAQLTEEGYYSVFGKSGARIEIPGCSLCMGNQARVADGATVVSTSTRNFPNRLGTGANVFLASAELAAVAALIGKLPTPEEYQTYVAQVDKTAVDTYRYLNFDQLSQYTEKADGVIFQTAV
Km (purified protein): 17 ± 3 µM
Vmax (purified protein): 21 µM/min
kcat (purified protein): 34.9 ± 1.67 s⁻¹
kcat/Km (purified protein): 2.05e+06 M⁻¹ s⁻¹

B3: Shewanella oneidensis MR-1 PrpF K73E variant (SoPrpF^K73E) (enzyme)
chain: MSNKLFPPQIKVAATYMRGGTSKGVFFRLQDLPEAAQVPGPARDALLLRVIGSPDPYAKQIDGMGGATSSTSETVILSHSSKANHDVDYLFGQVSIDKPFVDWSGNCGNLTAAVGAFAISNGLIDAARIPRNGVCTVRIWQANIGKTIIAHVPITDGAVQETGDFELDGVTFPAAEVQIEFMNPAADDDGEGGCMFPTGNLVDVLEVPGIGRFNATMINAGIPTIFINAEDLGYTGTELQDDINSDNAALAKFETIRAHGALRMGLIKHIDEAASRQHTPKIAFVAPPKSYASSSGKTVAAEDVDLLVRALSMGKLHHAMMGTAAVAIGTAAAIPGTLVNLAAGGGEKEAVRFGHPSGTLRVGAQAVQENGEWTVIKAIMSRSARVLMEGFVRVPKP
notes: PrpF (2-methylaconitate isomerase) of Shewanella oneidensis MR-1, with the substitution K73E; prpF+ cloned into pTEV4 (template pPRP196); also called Apo-SoPrpF^K73E; prpF258; source: E. coli, plasmid pPRP221 (pTEV4), IPTG-induced, purified (Maxwell 16 system)
binding result [2]: binds
